# Literature values in PMC10299984 (Diabetes Therapy, 2023).
# Conditions: 36 healthy participants
substance,measurement,value
insulin glargine [iGlar],INS-tmax,12 h
